# Earlier results as cited in article PMC11939847.
# Target: BRD4 ET (Homo sapiens) (UniProt O60885)
# Test: SPR
substance,measurement,value
LKIRL peptide,Kd,145 nM
